# In paper PMC2139957:
# Legend:
# [1] = steady-state domain-selective surface biotinylation, immunoblot; conditions: glycan lost; control: ΔBS p75NTR
# [2] = pulse-chase, ER-to-Golgi transport by O-glycan acquisition; conditions: glycan lost; control: native rat p75NTR
Molecule,"localisation_or_trafficking, other: percent apical [1]","localisation_or_trafficking, other: half-time of ER-to-Golgi transport [2]"
p75NTR (p75 neurotrophin receptor): N32D/ΔBS,"no change, <10 vs <10",–
p75NTR (p75 neurotrophin receptor): N32D (protein) parent chain: MRRAGAACSAMDRLRLLLLLILGVSSGGAKETCSTGLYTHSGECCKACNLGEGVAQPCGANQTVCEPCLDNVTFSDVVSATEPCKPCTECLGLQSMSAPCVEADDAVCRCAYGYYQDEETGHCEACSVCEVGSGLVFSCQDKQNTVCEECPEGTYSDEANHVDPCLPCTVCEDTERQLRECTPWADAECEEIPGRWIPRSTPPEGSDSTAPSTQEPEVPPEQDLVPSTVADMVTTVMGSSQPVVTRGTTDNLIPVYCSILAAVVVGLVAYIAFKRWNSCKQNKQGANSRPVNQTPPPEGEKLHSDSGISVDSQSLHDQQTHTQTASGQALKGDGNLYSSLPLTKREEVEKLLNGDTWRHLAGELGYQPEHIDSFTHEACPVRALLASWGAQDSATLDALLAALRRIQRADIVESLCSESTATSPV,–,"no change, 35–40 vs 35–40"
